Reference: the RNAGym collection of RNA variant scans (doi:10.1093/nar/gkz1192)

B1: CPEB3 Ribozyme (parent)
chain: UAACAGGGGGCCACAGCAGAAGCGUUCACGUCGCAGCCCCUGUCAGAUUCUGGUGAAUCUGCGAAUUCUGCUGUAUAUCUC

Variants of: B1
Assay: self-cleavage, relative activity (ratio to wild type); higher = more cleavage; in vitro, sequencing
How it was run: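 For each CPEB3 ribozyme variant, relative activity is its cleaved/total read fraction divided by the unmutated ribozyme's. Barcoded error-prone PCR libraries were transcribed by T7 RNA polymerase (5 hours, 37°C) and held in DNase I for 15 min before an EDTA stop, with cleavage occurring throughout. Template-switching reverse transcription and Illumina sequencing were used to read the RNAs. A 5-read minimum applied, and results are the mean of three batches.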

Compared with UAACAGGAGGCCACAGCAGAAGCGUUCACGUCGCAGCCCCUGUCAGAUUCUGGUGAAUCUGCGAAUUCUGCUGUGUAUCUC [G8A A75G], UAACAGGAGGCCACAGCAGAAGCGUUCACGUCGCAGCCCCUGUCAGAUUCUGGUGAAUCUGCGAAUUCUGCUGUUUAUCUC [G8A A75U] is higher in self-cleavage: 0.21 for the first, 0.24 for the second.

Going from UAACAGGAGGCCACAGCAGAAGCGUUCACGUCGCAGCCCCUGUCAGAUUCUGGUGAAUCUGCGAAUUCUGCUGUAUCUCUC [G8A A77C] to UAACAGGAGGCCACAGCAGAAGCGUUCACGUCGCAGCCCCUGUCAGAUUCUGGUGAAUCUGCGAAUUCUGCUGUAUGUCUC [G8A A77G], the self-cleavage rises from 0.09 to 0.23.

Going from UAACAGGAGGCCACAGCAGAAGCGUUCACGUCGCAGCCCCUGUCAGAUUCUGGUGAAUCUGCGAAUUCUGCUGUAUUUCUC [G8A A77U] to UAACAGGAGGCGACAGCAGAAGCGUUCACGUCGCAGCCCCUGUCAGAUUCUGGUGAAUCUGCGAAUUCUGCUGUAUAUCUC [G8A C12G], the self-cleavage falls from 0.18 to 0.09.

Going from UAACAGGAGGCCAGAGCAGAAGCGUUCACGUCGCAGCCCCUGUCAGAUUCUGGUGAAUCUGCGAAUUCUGCUGUAUAUCUC [G8A C14G] to UAACAGGAGGCCAUAGCAGAAGCGUUCACGUCGCAGCCCCUGUCAGAUUCUGGUGAAUCUGCGAAUUCUGCUGUAUAUCUC [G8A C14U], the self-cleavage falls from 0.38 to 0.08.

Compared with UAACAGGAGGCCACAGUAGAAGCGUUCACGUCGCAGCCCCUGUCAGAUUCUGGUGAAUCUGCGAAUUCUGCUGUAUAUCUC [G8A C17U], UAACAGGAGGCCACAGCAGAAGAGUUCACGUCGCAGCCCCUGUCAGAUUCUGGUGAAUCUGCGAAUUCUGCUGUAUAUCUC [G8A C23A] is lower in self-cleavage: 0.25 for the first, 0.06 for the second.

Going from UAACAGGAGGCCACAGCAGAAGUGUUCACGUCGCAGCCCCUGUCAGAUUCUGGUGAAUCUGCGAAUUCUGCUGUAUAUCUC [G8A C23U] to UAACAGGAGGCCACAGCAGAAGCGUUUACGUCGCAGCCCCUGUCAGAUUCUGGUGAAUCUGCGAAUUCUGCUGUAUAUCUC [G8A C27U], the self-cleavage rises from 0.07 to 0.08.

First: UAACAGGAGGCCACAGCAGAAGCGUUCAUGUCGCAGCCCCUGUCAGAUUCUGGUGAAUCUGCGAAUUCUGCUGUAUAUCUC [G8A C29U]
Second: UAACAGGAGGCCACAGCAGAAGCGUUCACGUAGCAGCCCCUGUCAGAUUCUGGUGAAUCUGCGAAUUCUGCUGUAUAUCUC [G8A C32A]
The self-cleavage of the first is higher: 0.24 for the first, 0.2 for the second.

Compared with UAACAGGAGGCCACAGCAGAAGCGUUCACGUCGUAGCCCCUGUCAGAUUCUGGUGAAUCUGCGAAUUCUGCUGUAUAUCUC [G8A C34U], UAACAGGAGGCCACAGCAGAAGCGUUCACGUCGCAGACCCUGUCAGAUUCUGGUGAAUCUGCGAAUUCUGCUGUAUAUCUC [G8A C37A] is lower in self-cleavage: 0.39 for the first, 0.15 for the second.

First: UAACAGGAGGCCACAGCAGAAGCGUUCACGUCGCAGUCCCUGUCAGAUUCUGGUGAAUCUGCGAAUUCUGCUGUAUAUCUC [G8A C37U]
Second: UAACAGGAGGCCACAGCAGAAGCGUUCACGUCGCAGCUCCUGUCAGAUUCUGGUGAAUCUGCGAAUUCUGCUGUAUAUCUC [G8A C38U]
The self-cleavage of the first is lower: 0.05 for the first, 0.08 for the second.

Compared with UAACAGGAGGCCACAGCAGAAGCGUUCACGUCGCAGCCACUGUCAGAUUCUGGUGAAUCUGCGAAUUCUGCUGUAUAUCUC [G8A C39A], UAACAGGAGGCCACAGCAGAAGCGUUCACGUCGCAGCCGCUGUCAGAUUCUGGUGAAUCUGCGAAUUCUGCUGUAUAUCUC [G8A C39G] is lower in self-cleavage: 0.21 for the first, 0.06 for the second.

Going from UAACAGGAGGCCACAGCAGAAGCGUUCACGUCGCAGCCCAUGUCAGAUUCUGGUGAAUCUGCGAAUUCUGCUGUAUAUCUC [G8A C40A] to UAACAGGAGGCCACAGCAGAAGCGUUCACGUCGCAGCCCUUGUCAGAUUCUGGUGAAUCUGCGAAUUCUGCUGUAUAUCUC [G8A C40U], the self-cleavage falls from 0.16 to 0.14.

First: UAACAGGAGGCCACAGCAGAAGCGUUCACGUCGCAGCCCCUGUAAGAUUCUGGUGAAUCUGCGAAUUCUGCUGUAUAUCUC [G8A C44A]
Second: UAACAGGAGGCCACAGCAGAAGCGUUCACGUCGCAGCCCCUGUUAGAUUCUGGUGAAUCUGCGAAUUCUGCUGUAUAUCUC [G8A C44U]
The self-cleavage of the first is higher: 0.26 for the first, 0.08 for the second.

Compared with UAACAGGAGGCCACAGCAGAAGCGUUCACGUCGCAGCCCCUGUCAGAUUUUGGUGAAUCUGCGAAUUCUGCUGUAUAUCUC [G8A C50U], UAACAGGAGGCCACAGCAGAAGCGUUCACGUCGCAGCCCCUGUCAGAUUCUGGUGAAUAUGCGAAUUCUGCUGUAUAUCUC [G8A C59A] is lower in self-cleavage: 0.12 for the first, 0.06 for the second.

Going from UAACAGGAGGCCACAGCAGAAGCGUUCACGUCGCAGCCCCUGUCAGAUUCUGGUGAAUCUGAGAAUUCUGCUGUAUAUCUC [G8A C62A] to UAACAGGAGGCCACAGCAGAAGCGUUCACGUCGCAGCCCCUGUCAGAUUCUGGUGAAUCUGUGAAUUCUGCUGUAUAUCUC [G8A C62U], the self-cleavage rises from 0.07 to 0.22.

First: UAACAGGAGGCCACAGCAGAAGCGUUCACGUCGCAGCCCCUGUCAGAUUCUGGUGAAUCUGCGAAUUAUGCUGUAUAUCUC [G8A C68A]
Second: UAACAGGAGGCCACAGCAGAAGCGUUCACGUCGCAGCCCCUGUCAGAUUCUGGUGAAUCUGCGAAUUCUGAUGUAUAUCUC [G8A C71A]
The self-cleavage of the first is higher: 0.2 for the first, 0.17 for the second.

Going from UAACAGGAGGCCACAGCAGAAGCGUUCACGUCGCAGCCCCUGUCAGAUUCUGGUGAAUCUGCGAAUUCUGUUGUAUAUCUC [G8A C71U] to UAACAGGAGGCCACAGCAGAAGCGUUCACGUCGCAGCCCCUGUCAGAUUCUGGUGAAUCUGCGAAUUCUGCUGUAUAUAUC [G8A C79A], the self-cleavage falls from 0.21 to 0.18.

Going from UAACAGGAGGCCACAGCAAAAGCGUUCACGUCGCAGCCCCUGUCAGAUUCUGGUGAAUCUGCGAAUUCUGCUGUAUAUCUC [G8A G19A] to UAACAGGAGGCCACAGCAGAAACGUUCACGUCGCAGCCCCUGUCAGAUUCUGGUGAAUCUGCGAAUUCUGCUGUAUAUCUC [G8A G22A], the self-cleavage rises from 0.06 to 0.27.
